Stoichiometry N (calmodulin per heavy chain) data for one substance are collected here from PMC2821024.

In the test the target is HuM7AIQ2 heavy chain, wild-type (human myosin VIIa Met1-Arg796, motor domain plus two IQ motifs) (human) (UniProt Q13402). Nature of the test: co-purification on anti-FLAG resin, SDS-PAGE densitometry.
UniProt Q13402, sequence (Q13402 1-796): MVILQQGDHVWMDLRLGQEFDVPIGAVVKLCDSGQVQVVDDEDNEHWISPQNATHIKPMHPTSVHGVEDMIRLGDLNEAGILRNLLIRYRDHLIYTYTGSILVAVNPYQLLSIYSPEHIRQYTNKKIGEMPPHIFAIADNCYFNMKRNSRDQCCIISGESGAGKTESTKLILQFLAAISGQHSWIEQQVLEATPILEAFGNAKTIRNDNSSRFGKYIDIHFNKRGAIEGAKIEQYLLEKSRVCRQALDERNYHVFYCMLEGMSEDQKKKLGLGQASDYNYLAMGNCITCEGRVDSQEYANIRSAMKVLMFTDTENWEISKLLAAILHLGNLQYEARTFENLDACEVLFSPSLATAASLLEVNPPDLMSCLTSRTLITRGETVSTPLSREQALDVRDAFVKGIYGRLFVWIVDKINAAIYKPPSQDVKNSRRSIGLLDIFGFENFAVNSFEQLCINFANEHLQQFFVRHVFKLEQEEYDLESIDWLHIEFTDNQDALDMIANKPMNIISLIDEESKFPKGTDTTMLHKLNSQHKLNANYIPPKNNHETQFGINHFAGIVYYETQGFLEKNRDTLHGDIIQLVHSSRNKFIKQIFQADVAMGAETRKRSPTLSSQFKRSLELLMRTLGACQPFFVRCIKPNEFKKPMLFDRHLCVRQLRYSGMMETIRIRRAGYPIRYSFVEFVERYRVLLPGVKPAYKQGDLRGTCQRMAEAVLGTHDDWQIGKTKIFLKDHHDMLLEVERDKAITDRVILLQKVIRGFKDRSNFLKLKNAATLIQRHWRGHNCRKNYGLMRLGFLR

For the substance “calmodulin (from UniProt P0DP23 1-149) (natural protein)”, the stoichiometry N (calmodulin per heavy chain) was 1.53.
